We go through two molecules from paper PMC5518878.

This assay deals with full-length rhodopsin of Figure 2A, fused to a TEV cleavage site and tTA (human) (UniProt P08100). The assay can be described thus: Tango assay (TEV protease proximity reporter); HTL cells co-transfected with receptor-TEV cleavage site-tTA and GRK-TEV protease fusions; luciferase reporter; vehicle or ligand overnight (ATR 10 μM for rhodopsin; paroxetine; DHE 0.1 μM, GR 127935 1 μM; SX 1 μM, ICI 118 551 1 μM); DNA amounts adjusted for similar expression. Background: In a reporter assay the amount or activity of a reporter protein is the signal.
Sequence of full-length rhodopsin of Figure 2A, fused to a TEV cleavage site and tTA (human) (P08100 whole entry, the tested form may be a part): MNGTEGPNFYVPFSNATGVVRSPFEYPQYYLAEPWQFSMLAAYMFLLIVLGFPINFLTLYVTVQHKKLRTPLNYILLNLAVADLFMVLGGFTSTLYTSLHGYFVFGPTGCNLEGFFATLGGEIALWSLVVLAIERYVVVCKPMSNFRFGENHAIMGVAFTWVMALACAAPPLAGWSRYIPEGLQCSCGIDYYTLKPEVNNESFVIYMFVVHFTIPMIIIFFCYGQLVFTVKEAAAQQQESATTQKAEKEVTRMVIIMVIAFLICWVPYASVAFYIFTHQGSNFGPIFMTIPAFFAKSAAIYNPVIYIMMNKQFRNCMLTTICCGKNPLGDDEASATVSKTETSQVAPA

B1: GRK1 (31-183)-TEV protease fusion (domain or fragment)
chain: RDKKYLAKLKLPPLSKCESLRDSLSLEFESVCLEQPIGKKLFQQFLQSAEKHLPALELWKDIEDYDTADNDLQPQKAQTILAQYLDPQAKLFCSFLDEGIVAKFKEGPVEIQDGLFQPLLQATLAHLGQAPFQEYLGSLYFLRFLQWKWLEAQ
B1 returned a binding capacity, percent of FL GRK1 of 70%.

B2: GRK1 (1-183)-TEV protease fusion (domain or fragment)
chain: MDFGSLETVVANSAFIAARGSFDGSSSQPSRDKKYLAKLKLPPLSKCESLRDSLSLEFESVCLEQPIGKKLFQQFLQSAEKHLPALELWKDIEDYDTADNDLQPQKAQTILAQYLDPQAKLFCSFLDEGIVAKFKEGPVEIQDGLFQPLLQATLAHLGQAPFQEYLGSLYFLRFLQWKWLEAQ
B2 displayed a binding capacity, percent of FL GRK1 of 70%.
